Results taken from patent US20220153832A1 (PIONYR IMMUNOTHERAPEUTICS, published 2022).

Key:
hVar3 (RG3036) = biological target: T1, hVar3 (RG3036) (human, UniProt Q9UEW3 147-520); assay: ELISA on hVar3
T1 construct: Human MARCO His-CLD-SRCR with Q452D, Y472S and K473S (already in the entry); also called recombinant human SRCR MARCO hVar3 protein

[1] = biological target: T2, N-terminally polyhistidine tagged human MARCO ECD (147-520), recombinant (human, UniProt Q9UEW3 147-520); assay: ProbeLife Gator
T2 construct: also called PI-RG-3000; recombinant human MARCO; not shown: N-terminal polyhistidine tag
T2 sequence: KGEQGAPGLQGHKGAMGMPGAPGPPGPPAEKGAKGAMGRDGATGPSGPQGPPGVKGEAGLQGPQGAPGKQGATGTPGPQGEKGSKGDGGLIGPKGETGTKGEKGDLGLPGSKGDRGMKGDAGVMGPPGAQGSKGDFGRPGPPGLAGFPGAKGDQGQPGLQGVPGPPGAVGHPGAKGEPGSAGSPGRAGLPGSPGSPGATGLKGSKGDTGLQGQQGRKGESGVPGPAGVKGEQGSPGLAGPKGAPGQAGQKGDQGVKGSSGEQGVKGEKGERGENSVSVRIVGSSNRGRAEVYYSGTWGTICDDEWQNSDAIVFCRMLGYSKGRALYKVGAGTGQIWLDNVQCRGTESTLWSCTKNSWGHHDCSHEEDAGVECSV
Method: (§1) The kinetics assay used either anti-mouse Fc or anti-human Fc probes to capture the anti-MARCO antibodies onto the probe, and then a five-step kinetic protocol was used to measure the affinity of the antibodies to the antigen, including the following steps: baseline, loading, baseline, association, and dissociation. The kinetics buffer (K buffer) provided by ProbeLife was used to establish the baseline for 60 seconds, and then the anti-mFc or anti-hFc probes were loaded with 200 nM of the antibodies for 120s until the capture reached saturation, measurement of the baseline in K buffer was performed for another 60s, followed by the association step using 200 nM antigen (human MARCO, mouse MARCO or cyno MARCO), and the dissociation step performed in K buffer for 5-10 minutes. The assay was done at 37° C. to maximize antibody:antigen dissociation.

[2] = biological target: T2, N-terminally polyhistidine tagged human …; assay: KD (nM) Human; method not given
[3] = biological target: T3, Cynomolgus MARCO, full length, on cells (cynomolgus, UniProt A0A2K5X0Z2 1-519); assay: flow cytometry, cells overexpressing cyno MARCO
T3 construct: whole, on cells; also called cyno MARCO; CyMARCO
T3 sequence: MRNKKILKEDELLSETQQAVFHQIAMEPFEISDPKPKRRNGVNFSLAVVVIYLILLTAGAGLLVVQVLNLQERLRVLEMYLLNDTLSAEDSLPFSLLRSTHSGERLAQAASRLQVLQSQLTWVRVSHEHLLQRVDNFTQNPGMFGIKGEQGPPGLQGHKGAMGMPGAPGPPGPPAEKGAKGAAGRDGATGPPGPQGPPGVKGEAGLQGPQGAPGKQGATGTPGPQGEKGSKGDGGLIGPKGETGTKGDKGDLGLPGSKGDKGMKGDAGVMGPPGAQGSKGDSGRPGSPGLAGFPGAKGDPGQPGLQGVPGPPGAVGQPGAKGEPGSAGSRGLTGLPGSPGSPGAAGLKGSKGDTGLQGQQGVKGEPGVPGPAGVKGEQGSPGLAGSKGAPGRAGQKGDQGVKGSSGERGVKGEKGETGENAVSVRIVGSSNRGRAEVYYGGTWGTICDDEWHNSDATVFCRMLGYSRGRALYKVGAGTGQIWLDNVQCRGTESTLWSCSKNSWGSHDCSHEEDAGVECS

[4] = biological target: T4, Human Macrophage Receptor with Collagenous Structure (MARCO), full length, on cells (human, UniProt Q9UEW3 1-520); assay: flow cytometry, cells overexpressing human MARCO
T4 construct: the cell type is named under assay; also called huMARCO; HuMARCO
T4 sequence: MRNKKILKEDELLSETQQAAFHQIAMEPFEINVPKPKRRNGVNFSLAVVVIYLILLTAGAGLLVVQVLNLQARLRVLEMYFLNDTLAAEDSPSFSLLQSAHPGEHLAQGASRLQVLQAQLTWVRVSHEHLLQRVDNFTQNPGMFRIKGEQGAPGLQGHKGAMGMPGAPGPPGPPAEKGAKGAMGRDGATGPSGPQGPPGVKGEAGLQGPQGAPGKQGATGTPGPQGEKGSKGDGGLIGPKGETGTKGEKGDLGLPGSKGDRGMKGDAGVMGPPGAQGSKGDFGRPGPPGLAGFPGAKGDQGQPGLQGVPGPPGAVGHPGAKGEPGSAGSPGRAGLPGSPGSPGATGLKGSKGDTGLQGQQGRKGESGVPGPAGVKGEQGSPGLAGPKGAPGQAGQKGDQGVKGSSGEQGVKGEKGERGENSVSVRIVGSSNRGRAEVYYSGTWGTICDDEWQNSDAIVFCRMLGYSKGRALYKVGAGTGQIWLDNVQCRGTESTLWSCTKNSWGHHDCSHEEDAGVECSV
Method: (§2) Supernatants were removed and cell pellets were resuspended in Ca²⁺+ and Mg²⁺+ Dulbecco's phosphate-buffered saline (D-PBS) at 1×10⁶ cells/ml. 100,000 cells/well were plated onto U-bottom 96-well plates for staining and all centrifugation steps were performed at 1500 rpm at 4° C. for 5 min and samples were kept protected from light throughout the protocol. Cells were pelleted and resuspended in 100 μl of Zombie NIR viability dye (BioLegend) prepared by diluting Zombie NIR dimethyl sulfoxide (DMSO) stock 1000-fold in D-PBS. Cells were stained by incubation for 10 min at room temperature (RT) in the dark, followed by quenching the staining reaction with the addition of 100 μl of Staining Medium (D-PBS containing 2% FBS and 2 mM ethylenediaminetetraacetic acid (EDTA). Cells were pelleted and resuspended in 100 μl of the different antibodies and hybridomas supernatants needed for screening and corresponding isotype controls in freshly prepared staining medium, such as PI-M014 and mIgG2b isotype. All mAbs were tested at the final top concentration of 100 nM (15 μg/ml) followed by an 8-point three-fold serial dilution, including 0 mg/ml control. Staining was carried out for 1 hour (hr) on ice, followed by 2 washes in Staining Medium. Cells were then pelleted and resuspended in 100 μl of allophycocyanin (APC)-conjugated goat anti-mouse IgG (Fc-specific) secondary antibody, prepared by 500-fold dilution of the antibody stocks in Staining Medium, and incubated for 30 min on ice. […] Flow cytometry data were analyzed using FlowJo software (version 10.6.1) and data were processed and further analyzed in Microsoft Excel and GraphPad Prism software (version 8). Half-maximal effective concentrations (EC₅₀) were calculated based on geometric mean fluorescence intensities (gMFI). In case when the plates were not able to be analyzed on the cytometer, cells were pelleted after the washes and fixed in 100 μl of 2% paraformaldehyde (PFA), prepared by diluting the 16% (w/v) stock (Thermo Fisher) in DPBS, for 15 min at RT. […]

[5] = biological target: T5, chimera Mouse MARCO CLD-human MARCO SRCR, on cells; assay: flow cytometry, cells overexpressing HuSRCR-mouse CLD chimera
T5 chain: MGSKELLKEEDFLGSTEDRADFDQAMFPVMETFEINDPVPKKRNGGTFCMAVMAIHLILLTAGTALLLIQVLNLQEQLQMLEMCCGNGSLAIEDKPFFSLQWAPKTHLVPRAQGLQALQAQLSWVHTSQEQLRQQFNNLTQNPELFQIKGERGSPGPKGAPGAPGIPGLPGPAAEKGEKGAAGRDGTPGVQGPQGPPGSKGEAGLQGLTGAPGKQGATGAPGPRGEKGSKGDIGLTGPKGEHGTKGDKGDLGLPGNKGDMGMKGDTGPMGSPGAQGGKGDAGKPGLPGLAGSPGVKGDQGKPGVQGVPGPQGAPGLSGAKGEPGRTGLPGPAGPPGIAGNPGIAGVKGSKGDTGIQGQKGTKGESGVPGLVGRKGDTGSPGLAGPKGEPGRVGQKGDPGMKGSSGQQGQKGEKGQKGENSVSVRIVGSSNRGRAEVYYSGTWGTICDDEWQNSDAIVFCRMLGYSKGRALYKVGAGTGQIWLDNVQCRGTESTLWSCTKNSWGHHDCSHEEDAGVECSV

[6] = biological target: T3, Cynomolgus MARCO, full length, on cells; assay: flow cytometry, 293T (CyMARCO)
Method: as §2

[7] = biological target: T4, Human Macrophage Receptor with …; assay: flow cytometry, 293T (HuMARCO)
Method: Supernatants were removed and cell pellets were resuspended in Ca²⁺+ and Mg²⁺+ Dulbecco's phosphate-buffered saline (D-PBS) at 1×10⁶ cells/ml. 100,000 cells/well were plated onto U-bottom 96-well plates for staining and all centrifugation steps were performed at 1500 rpm at 4° C. for 5 min and samples were kept protected from light throughout the protocol. Cells were pelleted and resuspended in 100 μl of Zombie NIR viability dye (BioLegend) prepared by diluting Zombie NIR dimethyl sulfoxide (DMSO) stock 1000-fold in D-PBS. Cells were stained by incubation for 10 min at room temperature (RT) in the dark, followed by quenching the staining reaction with the addition of 100 μl of Staining Medium (D-PBS containing 2% FBS and 2 mM ethylenediaminetetraacetic acid (EDTA). Cells were pelleted and resuspended in 100 μl of the different antibodies and hybridomas supernatants needed for screening and corresponding isotype controls in freshly prepared staining medium, such as PI-M014 and mIgG2b isotype. All mAbs were tested at the final top concentration of 100 nM (15 μg/ml) followed by an 8-point three-fold serial dilution, including 0 mg/ml control. Staining was carried out for 1 hour (hr) on ice, followed by 2 washes in Staining Medium. Cells were then pelleted and resuspended in 100 μl of allophycocyanin (APC)-conjugated goat anti-mouse IgG (Fc-specific) secondary antibody, prepared by 500-fold dilution of the antibody stocks in Staining Medium, and incubated for 30 min on ice. Plates were then washed two times with Staining Medium, followed by resuspension in 150 μl of the same buffer for acquisition on the flow cytometer (Attune NxT, Life Technologies). Flow cytometry data were analyzed using FlowJo software (version 10.6.1) and data were processed and further analyzed in Microsoft Excel and GraphPad Prism software (version 8). Half-maximal effective concentrations (EC₅₀) were calculated based on geometric mean fluorescence intensities (gMFI). In case when the plates were not able to be analyzed on the cytometer, cells were pelleted after the washes and fixed in 100 μl of 2% paraformaldehyde (PFA), prepared by diluting the 16% (w/v) stock (Thermo Fisher) in DPBS, for 15 min at RT. Cells were then pelleted and the fixative was removed, followed by resuspension in 150 μl of Staining Medium and stored at 4° C. until acquisition on the flow cytometer.

[8] = biological target: T2, N-terminally polyhistidine tagged human …; assay: ELISA on recombinant human MARCO, 0 mM EDTA
Method: (§3) After the plates were incubated at room temperature for 1 hour or 4° C. overnight, the plates were wash 3 times with ELISA wash buffer (PBS/0.05% TWEEN-20), then hybridoma supernatant (1:5 dilution) or purified antibody (1 ug) was diluted in DPBS/Ca2+/2% FBS, DPBS without Ca2+/2 mM EDTA/2% FBS, DPBS without Ca2+/10 mM EDTA/2% FBS, and DPBS without Ca2+/50 mM EDTA/2% FBS. Plates again were incubated at room temperature for 1 hour.

[9] = biological target: T2, N-terminally polyhistidine tagged human …; assay: ELISA on recombinant human MARCO, 2 mM EDTA
Method: as §3

[10] = biological target: T2, N-terminally polyhistidine tagged human …; assay: ELISA on recombinant human MARCO, 10 mM EDTA
Method: as §3

[11] = biological target: T2, N-terminally polyhistidine tagged human …; assay: ELISA on recombinant human MARCO, 50 mM EDTA
Method: as §3

[12] = biological target: T2, N-terminally polyhistidine tagged human …; assay: label-free kinetics (ProbeLife Gator), mAb captured, human MARCO
Method: as §1
Kinetics and epitope binning analysis of the newly generated anti-human MARCO antibodies was performed as described in Example 3.

B1: PI-3030-AB (antibody, human IgG1, kappa)
heavy: not shown
light: DIQMTQSPASLSASLGETVSIECLASAGISNDLAWYQQKSGKSPQLLIYAASRLQDGVPSRFSGSGSGTRFSLKISDMQPEDEADYFCQQSYKYPWTFGGGTKLELKRTVAAPSVFIFPPSDEQLKSGTASVVCLLNNFYPREAKVQWKVDNALQSGNSQESVTEQDSKDSTYSLSSTLTLSKADYEKHKVYACEVTHQGLSSPVTKSFNRGEC
notes: Human IgG1 chimera of PI-HX-3011; also called HX3011-h1 Chimera hIgG1
binding result (hVar3 (RG3036)): no binding | koff [1]: 0.00351 s⁻¹ | Kd [2]: 0.44 nM | EC50 [3]: 0.38 nM | EC50 [4]: 0.55 nM | EC50 [5]: 0.17 nM

B2: PI-3031-AB (antibody, human IgG1, kappa)
heavy: not shown
light: DIQMTQSPASLSASLGETVSIECLTSEGISNDLAWYQQKSGKSPQLLIYDASRLEDGVPSRFSGSGSGTRYSLKISGMQTEDEADYFCQQSYKYPLTFGSGTKLEIKRTVAAPSVFIFPPSDEQLKSGTASVVCLLNNFYPREAKVQWKVDNALQSGNSQESVTEQDSKDSTYSLSSTLTLSKADYEKHKVYACEVTHQGLSSPVTKSFNRGEC
notes: Human IgG1 chimera of PI-HX-3043; also called HX3043-h1 Chimera hIgG1
binding result (hVar3 (RG3036)): no binding | koff [1]: 0.00281 s⁻¹ | Kd [2]: 0.6 nM | EC50 [3]: 1.09 nM | EC50 [4]: 1.6 nM | EC50 [5]: 1.07 nM

B3: PI-HX-3011 (antibody, rat IgG2a)
heavy: QIQLVQSGPELKKPGESVKISCKASGYTFTDYAVNWVKQAPGNGLKWMGWINTQTGKPTYADDFKQRFVFSLETSASTSFLQINNLNIEDTATYFCTRDSYYYSSSLDYWGQGVMVTVSSAETTAPSVYPLAPGTALKSNSMVTLGCLVKGYFPEPVTVTWNSGALSSGVHTFPAVLQSGLYTLTSSVTVPSSTWSSQAVTCNVAHPASSTKVDKKIVPRECNPCGCTGSEVSSVFIFPPKTKDVLTITLTPKVTCVVVDISQNDPEVRFSWFIDDVEVHTAQTHAPEKQSNSTLRSVSELPIVHRDWLNGKTFKCKVNSGAFPAPIEKSISKPEGTPRGPQVYTMAPPKEEMTQSQVSITCMVKGFYPPDIYTEWKMNGQPQENYKNTPPTMDTDGSYFLYSKLNVKKETWQQGNTFTCSVLHEGLHNHHTEKSLSHSP
light: DIQMTQSPASLSASLGETVSIECLASAGISNDLAWYQQKSGKSPQLLIYAASRLQDGVPSRFSGSGSGTRFSLKISDMQPEDEADYFCQQSYKYPWTFGGGTKLELKRADAAPTVSIFPPSTEQLATGGASVVCLMNNFYPRDISVKWKIDGTERRDGVLDSVTDQDSKDSTYSMSSTLSLTKADYESHNLYTCEVVHKTSSSPVVKSFNRNEC
notes: Parental rat hybridoma, rat IgG2a
EC50 [6]: 0.094 nM | EC50 [7]: 0.096 nM | ELISA signal (A450) [8]: 1.17 | ELISA signal (A450) [9]: 0.0636 | ELISA signal (A450) [10]: 0.0811 | ELISA signal (A450) [11]: 0.082 | koff [12]: 0.000914 s⁻¹ | kon [12]: 401000 M⁻¹ s⁻¹
